Assay [1] has as its target IL-12 (mouse) (mouse) (UniProt P43432). Briefly: cell-based or functional assay. The settings on record: scale: fold more effective than the anti-p35 mAb.
The target in assay [2] is T1, human p40 single mutant E45A (human, UniProt P29460 23-328).
T1 construct: HEK293E supernatant
T1 sequence: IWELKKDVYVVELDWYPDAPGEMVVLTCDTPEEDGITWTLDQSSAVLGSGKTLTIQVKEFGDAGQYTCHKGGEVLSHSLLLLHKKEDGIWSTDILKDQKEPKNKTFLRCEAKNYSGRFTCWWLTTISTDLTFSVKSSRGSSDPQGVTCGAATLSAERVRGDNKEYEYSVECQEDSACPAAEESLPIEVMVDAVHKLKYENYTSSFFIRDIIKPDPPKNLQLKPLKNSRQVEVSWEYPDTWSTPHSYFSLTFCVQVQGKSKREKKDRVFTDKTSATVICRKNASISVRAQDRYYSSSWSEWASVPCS
Briefly: capture assay, relative binding affinity of the mAb to p40 muteins (FIG. 4). Here is the method: (§1) In brief, MSD high bind plates (Meso Scale Discovery, MD) were coated with 5 μl of a capture monoclonal antibody (5 μg/ml) at room temperature for 1 hour. […] One-hundred and fifty (150) μl of 5% MSD Blocker A buffer was added to each well and incubated for 1 hr at room temperature. Plates were washed three times with 0.1 M HEPES buffer (pH 7.4). These protein-charged ELISA plates were incubated with 25 μl of different transiently expressed p40 mutant supernatants (1:10 dilution with 0.1 M HEPES buffer, pH 7.4) for 1 hr at room temperature. The plates were washed three times with 0.1 M HEPES buffer (pH 7.4). Twenty-five (25) μ1 of different concentrations of MSD Sulfo-TAG labeled p40 mAb, ranging from 0 to 20 μg/ml, were dispensed to micro-wells. After incubation for 2 hrs shaking at room temperature, plates were washed 3 times with 0.1 M HEPES buffer (pH 7.4). One hundred and fifty (150) μ1 of diluted MSD Read Buffer T was dispensed into each well and the plates were analyzed with a SECTOR imager (MSD).

Assay [3] deals with T2, human p40 single mutant L40T (human, UniProt P29460 23-328).
T2 construct: HEK293E supernatant
T2 sequence: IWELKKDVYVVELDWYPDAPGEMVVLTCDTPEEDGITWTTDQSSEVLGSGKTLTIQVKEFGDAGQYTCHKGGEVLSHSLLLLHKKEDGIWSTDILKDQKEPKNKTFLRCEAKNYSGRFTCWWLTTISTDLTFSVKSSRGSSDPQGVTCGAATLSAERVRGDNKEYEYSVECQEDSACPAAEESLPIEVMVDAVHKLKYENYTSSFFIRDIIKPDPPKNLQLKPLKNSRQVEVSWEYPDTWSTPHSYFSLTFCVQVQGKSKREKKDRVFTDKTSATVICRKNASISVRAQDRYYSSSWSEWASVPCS
Described as above. As to the method: as §1

Assay [4] addresses T3, human p40 single mutant S43R (human, UniProt P29460 23-328).
T3 construct: HEK293E supernatant
T3 sequence: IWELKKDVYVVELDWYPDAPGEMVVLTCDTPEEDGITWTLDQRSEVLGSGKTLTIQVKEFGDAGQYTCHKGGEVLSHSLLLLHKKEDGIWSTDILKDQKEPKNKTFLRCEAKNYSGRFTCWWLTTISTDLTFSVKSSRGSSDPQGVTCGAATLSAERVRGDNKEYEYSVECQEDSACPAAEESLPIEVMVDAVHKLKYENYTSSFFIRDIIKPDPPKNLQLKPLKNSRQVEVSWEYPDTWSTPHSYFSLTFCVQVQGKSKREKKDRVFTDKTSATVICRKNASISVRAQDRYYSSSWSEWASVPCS
The assay is described as above. Here is the method:
as §1

Assay [5] deals with T4, human p40 single mutant M23T (human, UniProt P29460 23-328).
T4 construct: HEK293E supernatant
T4 sequence: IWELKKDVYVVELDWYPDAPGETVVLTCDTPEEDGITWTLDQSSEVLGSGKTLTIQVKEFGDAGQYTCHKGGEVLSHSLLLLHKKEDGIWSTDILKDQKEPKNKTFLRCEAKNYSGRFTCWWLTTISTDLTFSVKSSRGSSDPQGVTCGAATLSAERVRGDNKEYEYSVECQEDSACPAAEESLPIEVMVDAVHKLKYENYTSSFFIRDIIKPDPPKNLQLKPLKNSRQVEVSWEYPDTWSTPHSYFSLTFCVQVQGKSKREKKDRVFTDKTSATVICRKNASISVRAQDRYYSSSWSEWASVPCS
The description is as above. Here is the method: as §1

This passage reports neutralizing IL-12 (in vitro neutralization studies) and reduction of binding results from US20200384081A1 (Janssen / Centocor, published 2020).

Chain of IL-12 (mouse) (mouse) (P43432 23-335 limits assumed, chain 1 of 2): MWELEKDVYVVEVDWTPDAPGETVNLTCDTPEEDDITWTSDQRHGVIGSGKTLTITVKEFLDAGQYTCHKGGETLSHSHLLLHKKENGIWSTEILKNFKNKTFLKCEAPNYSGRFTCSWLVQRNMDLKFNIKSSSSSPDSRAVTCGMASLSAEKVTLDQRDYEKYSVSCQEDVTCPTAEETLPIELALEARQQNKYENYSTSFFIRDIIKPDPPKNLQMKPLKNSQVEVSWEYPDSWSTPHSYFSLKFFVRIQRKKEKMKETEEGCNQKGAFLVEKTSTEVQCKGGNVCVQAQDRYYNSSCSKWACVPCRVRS
Chain of IL-12 (mouse) (mouse) (P43431 23-215 limits assumed, chain 2 of 2, further chain): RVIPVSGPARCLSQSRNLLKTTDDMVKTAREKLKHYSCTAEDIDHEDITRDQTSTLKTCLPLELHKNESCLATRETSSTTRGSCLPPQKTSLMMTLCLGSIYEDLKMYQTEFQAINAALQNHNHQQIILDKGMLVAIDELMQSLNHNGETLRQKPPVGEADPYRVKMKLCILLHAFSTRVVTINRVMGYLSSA

Molecule “C17.8 (rat anti-mouse IL-12/IL-23p40, IgG2a) (antibody)” had a neutralizing IL-12 (in vitro neutralization studies) in assay [1] of 5.

B1: IL-12/IL-23p40 mAb (antibody, V domains shown)
VH: EVQLVQSGAEVKKPGESLKISCKGSGYSFTTYWLGWVRQMPGKGLDWIGIMSPVDSDIRYSPSFQGQVTMSVDKSITTAYLQWNSLKASDTAMYYCARRRPGQGYFDFWGQGTLVTVSS
VL: DIQMTQSPSSLSASVGDRVTITCRASQGISSWLAWYQQKPEKAPKSLIYAASSLQSGVPSRFSGSGSGTDFTLTISSLQPEDFATYYCQQYNIYPYTFGQGTKLEIKR
notes: Fully human monoclonal IgG from a mammalian cell line, purified on protein A; also called IL-12/23p40 mAb; IL-12 p40 antibody
In the case of B1, the reduction of binding in assay [2] is ~70%; in assay [3], ~40%; in assay [4] it was ~40%; in assay [5], ~40%.
